According to paper doi:10.1101/244665 (bioRxiv, 2019):

Molecular target: the molecule itself
Experiment: SEC

| Protein | stoichiometry N |
| --- | --- |
| PfA-M17(Δ388–389) (enzyme, Plasmodium falciparum, UniProt Q8IL11 85-605, looked up) ASEVPQVVSLDPTSIPIEYNTPIHDIKVQVYDIKGGCNVEEGLTIFLVNNPGKENGPVKISSKVNDKNVSEFLKDENMEKFNVKLGTSKHFYMFNDNKNSVAVGYVGCGSVADLSEADMKRVVLSLVTMLHDNKLSKLTVVFEINVDKNLFRFFLETLFYEYMTDERFKSTDKNVNMEYIKHLGVYINNADTYKEEVEKARVYYFGTYYASQLIAAPSNYCNPVSLSNAAVELAQKLNLEYKILGVKELEELKMGAYLSVGKGSMYPNKFIHLTYKSKGDVKKKIALVGKGITFDSGGYNLKAGSMIDLMKFDMSGCAAVLGCAYCVGTLKPENVEIHFLSAVCENMVSKNSYRPGDIITASNGKTIEVGNTDAEGRLTLADALVYAEKLGVDYIVDIATLTGAMLYSLGTSYAGVFGNNEELINKILNSSKTSNEPVWWLPIINEYRATLNSKYADINNISSSVKASSIVASLFLKEFVQNTAWAHIDIAGVSWNFKARKPKGFGVRLLTEFVLNDAL | 6 |
| PfA-M17(Δ388–390) (enzyme, Plasmodium falciparum, UniProt Q8IL11 85-605, looked up) ASEVPQVVSLDPTSIPIEYNTPIHDIKVQVYDIKGGCNVEEGLTIFLVNNPGKENGPVKISSKVNDKNVSEFLKDENMEKFNVKLGTSKHFYMFNDNKNSVAVGYVGCGSVADLSEADMKRVVLSLVTMLHDNKLSKLTVVFEINVDKNLFRFFLETLFYEYMTDERFKSTDKNVNMEYIKHLGVYINNADTYKEEVEKARVYYFGTYYASQLIAAPSNYCNPVSLSNAAVELAQKLNLEYKILGVKELEELKMGAYLSVGKGSMYPNKFIHLTYKSKGDVKKKIALVGKGITFDSGGYNLKASMIDLMKFDMSGCAAVLGCAYCVGTLKPENVEIHFLSAVCENMVSKNSYRPGDIITASNGKTIEVGNTDAEGRLTLADALVYAEKLGVDYIVDIATLTGAMLYSLGTSYAGVFGNNEELINKILNSSKTSNEPVWWLPIINEYRATLNSKYADINNISSSVKASSIVASLFLKEFVQNTAWAHIDIAGVSWNFKARKPKGFGVRLLTEFVLNDAL | 6 |
| Plasmodium falciparum M17 aminopeptidase (PfA-M17), wild type, truncated (amino acids 85-605) (enzyme, UniProt Q8IL11 85-605, looked up) ASEVPQVVSLDPTSIPIEYNTPIHDIKVQVYDIKGGCNVEEGLTIFLVNNPGKENGPVKISSKVNDKNVSEFLKDENMEKFNVKLGTSKHFYMFNDNKNSVAVGYVGCGSVADLSEADMKRVVLSLVTMLHDNKLSKLTVVFEINVDKNLFRFFLETLFYEYMTDERFKSTDKNVNMEYIKHLGVYINNADTYKEEVEKARVYYFGTYYASQLIAAPSNYCNPVSLSNAAVELAQKLNLEYKILGVKELEELKMGAYLSVGKGSMYPNKFIHLTYKSKGDVKKKIALVGKGITFDSGGYNLKAAPGSMIDLMKFDMSGCAAVLGCAYCVGTLKPENVEIHFLSAVCENMVSKNSYRPGDIITASNGKTIEVGNTDAEGRLTLADALVYAEKLGVDYIVDIATLTGAMLYSLGTSYAGVFGNNEELINKILNSSKTSNEPVWWLPIINEYRATLNSKYADINNISSSVKASSIVASLFLKEFVQNTAWAHIDIAGVSWNFKARKPKGFGVRLLTEFVLNDAL | 6 |
| PfA-M17(A387P) (enzyme, Plasmodium falciparum, UniProt Q8IL11 85-605, looked up) ASEVPQVVSLDPTSIPIEYNTPIHDIKVQVYDIKGGCNVEEGLTIFLVNNPGKENGPVKISSKVNDKNVSEFLKDENMEKFNVKLGTSKHFYMFNDNKNSVAVGYVGCGSVADLSEADMKRVVLSLVTMLHDNKLSKLTVVFEINVDKNLFRFFLETLFYEYMTDERFKSTDKNVNMEYIKHLGVYINNADTYKEEVEKARVYYFGTYYASQLIAAPSNYCNPVSLSNAAVELAQKLNLEYKILGVKELEELKMGAYLSVGKGSMYPNKFIHLTYKSKGDVKKKIALVGKGITFDSGGYNLKPAPGSMIDLMKFDMSGCAAVLGCAYCVGTLKPENVEIHFLSAVCENMVSKNSYRPGDIITASNGKTIEVGNTDAEGRLTLADALVYAEKLGVDYIVDIATLTGAMLYSLGTSYAGVFGNNEELINKILNSSKTSNEPVWWLPIINEYRATLNSKYADINNISSSVKASSIVASLFLKEFVQNTAWAHIDIAGVSWNFKARKPKGFGVRLLTEFVLNDAL | 6 |
